# Assay results: the supplement of paper PMC10567573
# B1: TBX5 (parent)
# chain: FHEVGTEMIITKAGRRMFPSYKVK
# Variants of: B1
# Assay: protein stability index of a GFP-peptide fusion (GPS, HEK-293T) (PSI 1-6); higher = more stable
# Conditions: c terminus: a fixed tail appended
# 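Also: lentivirally expressed fusions sorted by FACS into six bins by GFP to DsRed ratio, PSI derived from sequencing read proportions per bin multiplied by bin number.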
row,Variant,protein stability index
1,FHEVGTEMIITKYGRRMFPSYKVK,1.55
2,FHEVGTEMIITKAGRDMFPSYKVK,2.15
3,FHEVGTEMIITKAGRMMFPSYKVK,1.96
4,FHEVGTEMIITKAGRFMFPSYKVK,2.31
5,FHEVGTEMIITKAGREMFPSYKVK,2.38
6,FHEVGTEMIITKAGRCMFPSYKVK,1.59
7,FHEVGTEMIITKAGRQMFPSYKVK,1.85
8,FHEVGTEMIITKAGRIMFPSYKVK,1.81
9,FHEVGTEMIITKAGRGMFPSYKVK,2.43
10,FHEVGTEMIITKAGRPMFPSYKVK,2.11
11,FHEVGTEMIITKAGRNMFPSYKVK,2.54
12,FHEVGTEMIITKAGRLMFPSYKVK,2.09
13,FHEVGTEMIITKAGRKMFPSYKVK,2.65
14,FHEVGTEMIITKAGRVMFPSYKVK,1.54
15,FHEVGTEMIITKAGRTMFPSYKVK,2.03
16,FHEVGTEMIITKAGRAMFPSYKVK,1.91
17,FHEVGTEMIITKAGRYMFPSYKVK,1.92
18,FHEVGTEMIITKAGRHMFPSYKVK,2.02
19,FHEVGTEMIITKAGRSMFPSYKVK,1.75
20,FHEVGTEMIITKAPRRMFPSYKVK,2.86
21,FHEVGTEMIITKAFRRMFPSYKVK,2.41
22,FHEVGTEMIITKASRRMFPSYKVK,1.83
23,FHEVGTEMIITKAKRRMFPSYKVK,1.68
24,FHEVGTEMIITKAWRRMFPSYKVK,1.95

row,Variant,protein stability index
1,FHEVGTEMIITKARRRMFPSYKVK,1.64
2,FHEVGTEMIITKAVRRMFPSYKVK,1.62
3,FHEVGTEMIITKAARRMFPSYKVK,2.6
4,FHEVGTEMIITKAERRMFPSYKVK,2
5,FHEVGTEMIITKADRRMFPSYKVK,1.48
6,FHEVGTEMIITKAIRRMFPSYKVK,1.66
7,FHEVGTEMIITKAQRRMFPSYKVK,2.17
8,FHEVGTEMIITKANRRMFPSYKVK,2.04
9,FHEVGTEMIITKAMRRMFPSYKVK,1.49
10,FHEVGTEMIITKAHRRMFPSYKVK,1.73
11,FHEVGTEMIITKATRRMFPSYKVK,2.42
12,FHEVGTEMIITKAYRRMFPSYKVK,2.17
13,FHEVGTEMIITKALRRMFPSYKVK,1.71
14,FHEVGTEMIITKAGRRGFPSYKVK,1.67
15,FHEVGTEMIITKAGRRVFPSYKVK,1.63
16,FHEVGTEMIITKAGRRAFPSYKVK,2.38
17,FHEVGTEMIITKAGRRSFPSYKVK,2.68
18,FHEVGTEMIITKAGRRRFPSYKVK,2.57
19,FHEVGTEMIITKAGRRKFPSYKVK,2.11
20,FHEVGTEMIITKAGRRPFPSYKVK,1.84
21,FHEVGTEMIITKAGRRDFPSYKVK,2.28
22,FHEVGTEMIITKAGRRCFPSYKVK,2.05
23,FHEVGTEMIITKAGRRNFPSYKVK,1.87
24,FHEVGTEMIITKAGRRYFPSYKVK,2.44

row,Variant,protein stability index
1,FHEVGTEMIITKAGRRTFPSYKVK,1.98
2,FHEVGTEMIITKAGRRIFPSYKVK,1.98
3,FHEVGTEMIITKAGRRQFPSYKVK,2.5
4,FHEVGTEMIITKAGRRLFPSYKVK,2.27
5,FHEVGTEMIITKAGRRHFPSYKVK,1.71
6,FHEVGTEMIITKAGRRFFPSYKVK,2
7,FHEVGTEMIITKAGRREFPSYKVK,2.83
8,FHEVGTEMIITKAGRRMVPSYKVK,2.01
9,FHEVGTEMIITKAGRRMNPSYKVK,2.07
10,FHEVGTEMIITKAGRRMHPSYKVK,3.08
11,FHEVGTEMIITKAGRRMCPSYKVK,2.61
12,FHEVGTEMIITKAGRRMMPSYKVK,2.23
13,FHEVGTEMIITKAGRRMRPSYKVK,1.76
14,FHEVGTEMIITKAGRRMQPSYKVK,2.58
15,FHEVGTEMIITKAGRRMSPSYKVK,2.41
16,FHEVGTEMIITKAGRRMGPSYKVK,2.25
17,FHEVGTEMIITKAGRRMKPSYKVK,1.94
18,FHEVGTEMIITKAGRRMLPSYKVK,2.51
19,FHEVGTEMIITKAGRRMEPSYKVK,2.34
20,FHEVGTEMIITKAGRRMWPSYKVK,1.8
21,FHEVGTEMIITKAGRRMPPSYKVK,2.11
22,FHEVGTEMIITKAGRRMAPSYKVK,2.76
23,FHEVGTEMIITKAGRRMIPSYKVK,2.07
24,FHEVGTEMIITKAGRRMTPSYKVK,1.92

row,Variant,protein stability index
1,FHEVGTEMIITKAGRRMYPSYKVK,2.07
2,FHEVGTEMIITKAGGRMFPSYKVK,1.77
3,FHEVGTEMIITKAGYRMFPSYKVK,2.58
4,FHEVGTEMIITKAGSRMFPSYKVK,1.69
5,FHEVGTEMIITKAGIRMFPSYKVK,1.83
6,FHEVGTEMIITKAGQRMFPSYKVK,2.2
7,FHEVGTEMIITKAGNRMFPSYKVK,2.29
8,FHEVGTEMIITKAGERMFPSYKVK,1.74
9,FHEVGTEMIITKAGKRMFPSYKVK,1.92
10,FHEVGTEMIITKAGVRMFPSYKVK,1.72
11,FHEVGTEMIITKAGFRMFPSYKVK,1.91
12,FHEVGTEMIITKAGLRMFPSYKVK,1.81
13,FHEVGTEMIITKAGARMFPSYKVK,2.18
14,FHEVGTEMIITKAGTRMFPSYKVK,2.21
15,FHEVGTEMIITKAGPRMFPSYKVK,1.87
16,FHEVGTEMIITKAGCRMFPSYKVK,2.63
17,FHEVGTEMIITKAGWRMFPSYKVK,1.53
18,FHEVGTEMIITKAGDRMFPSYKVK,2.71
19,FHEVGTEMIITKAGMRMFPSYKVK,1.59
20,FHEVGTEMIITKAGHRMFPSYKVK,2.14
21,FHEVGTEMIITKAGRRMFASYKVK,2
22,FHEVGTEMIITKAGRRMFCSYKVK,2.53
